The target in one assay is HLA-A*03:01 (human). In words: REVEAL MHC-peptide binding assay, recombinant HLA. The note with it: remark: other sources report otherwise.
On to IIFWVQRGA, for which the In Vitro Score (% of positive control peptide) is 2.7.
WVKRGSKKL: the In Vitro Score (% of positive control peptide) worked out at 1.9.
For the molecule AFIIFWVHR, the In Vitro Score (% of positive control peptide) turned out to be 0.3.
Same read-out and setting: in the case of IFWVKRGLK it was 26.9.
Regarding IIFWVSRGR, the In Vitro Score (% of positive control peptide) came to 25.3.
Still for that read-out and setting: in the case of IIFWVHRGR it was 30.1; in that of IFWVQRGAK, 17.
Consider AFIIFWVSR, for which the In Vitro Score (% of positive control peptide) was 0.3.
The same measure, in the same setting: in the case of AFIIFWVAR it was 0.5; in that of IFWVQRGNK, 23.2.
With IFWVHRGRK, the In Vitro Score (% of positive control peptide) turned out to be 37.8.
Still for that read-out and setting: in the case of IFWVSRGRK it was 39.2; in that of IFWVARGRK, 53.7; in that of IIFWVKRGL, 15.9.
The same measure, in the same setting: for WVQRGNKKL the value was 1.5; for IIFWVKRGS, 16.2; for IFWVQRGRK, 36.7.
Turning to VAFIIFWVS, the In Vitro Score (% of positive control peptide) is 0.7.
Still for that read-out and setting: for IIFWVKRGR the value was 24.3; for IIFWVQRGR, 18; for WVKRGNKKL, 0.9.
On the same count and under the same terms, for IFWVKRGSK the value was 10.4; for FIIFWVHRG, 0.

A further assay addresses HLA-A*02:01 (human). Nature of the assay: REVEAL MHC-peptide binding assay, recombinant HLA. The note with it: remark: other sources report otherwise.
With IIFWVQRGA, the In Vitro Score (% of positive control peptide) came to 95.3.
Same read-out and setting: in the case of WVKRGSKKL it was 3; in that of AFIIFWVHR, 0.3.
Consider IFWVKRGLK, for which the In Vitro Score (% of positive control peptide) was determined as 2.4.
IIFWVSRGR: the In Vitro Score (% of positive control peptide) amounted to 2.6.
On the same count and under the same terms, for IIFWVHRGR the value was 4.7; for IFWVQRGAK, 11.7.
On the same count and under the same terms, in the case of AFIIFWVSR it was 4.5; in that of AFIIFWVAR, 2.2.
In the case of IFWVQRGNK, the In Vitro Score (% of positive control peptide) came to 16.1.
Same read-out and setting: for IFWVHRGRK the value was 7.1; for IFWVSRGRK, 1.3; for IFWVARGRK, 1.
With IIFWVKRGL, the In Vitro Score (% of positive control peptide) came out at 82.2.
Same read-out and setting: for WVQRGNKKL the value was 4.3; for IIFWVKRGS, 13.6; for IFWVQRGRK, 6.1.
For the molecule VAFIIFWVS, the In Vitro Score (% of positive control peptide) turned out to be 70.6.
Same read-out and setting: in the case of IIFWVKRGR it was 1.7; in that of IIFWVQRGR, 5.8; in that of WVKRGNKKL, 2.4.
As to IFWVKRGSK, the In Vitro Score (% of positive control peptide) came out at 2.4.
The same measure, in the same setting: for FIIFWVHRG the value was 37.3.

Another assay has as its target HLA-A*02:01 (recombinant MHC class I molecule) (human). Nature of the assay: REVEAL MHC-peptide binding assay, recombinant MHC, score normalised to positive control = 100. The settings on record: remark: other sources report otherwise.
As to VAFIIFWVR [Synthetic peptide … (K28R)], the In Vitro Score (% of positive control peptide) amounted to 1.2.

Another assay deals with HLA-A*03:01 (recombinant MHC class I molecule) (human). The assay is described as above. The note with it: remark: other sources report otherwise.
Turning to VAFIIFWVR [Synthetic peptide … (K28R)], the In Vitro Score (% of positive control peptide) amounted to 0.7.

Another assay deals with HLA-B*08:01 (recombinant MHC class I molecule) (human). In words: REVEAL MHC-peptide binding assay, stabilisation of ternary complex with recombinant MHC. The note with it: remark: other sources report otherwise.
In the case of VAFIIFWVR [… synthetic peptide K28R (SEQ ID NO: 100)], the In Vitro Score (% of positive control peptide) came out at 0.1.

The target in another assay is HLA-A*11:01 (recombinant MHC class I molecule) (human). The description is as above. The settings on record: remark: other sources report otherwise.
For the molecule VAFIIFWVR [… synthetic peptide K28R (SEQ ID NO: 100)], the In Vitro Score (% of positive control peptide) was 34.6.

Values taken from US20200297760A1, “COMPOSITIONS AND METHODS FOR REDUCING IMMUNE RESPONSES AGAINST CHIMERIC ANTIGEN RECEPTORS” (Juno Therapeutics, Inc., priority 2015, published 2020).
